Measurements published in the supplement of paper PMC9112550, “Optimization of the antimicrobial peptide Bac7 by deep mutational scanning” (BMC Biology, 2022).

Test system: Escherichia coli TOP10
Experiment: shrunken log2 fold change of peptide-encoding DNA abundance (4.5 h post-induction vs induction); higher = less antimicrobial activity (less host growth inhibition)
Details: time post-induction: 4.5 h; library: site-saturation at positions 5, 18, 19, 20
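Note: peptides expressed intracellularly from a pBAD plasmid library in pooled LB shake-flask culture, induced with 0.3% L-arabinose, DNA abundance read by NGS, three biological replicates, DESeq2 with apeglm shrinkage.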

Sequence | shrunken log2 fold change
RRIRHRPPRLPRPRPRPLYFPRP | -0.816
RRIRSRPPRLPRPRPRPNGVPRP | -0.00885
RRIRYRPPRLPRPRPRPLYTPRP | -0.795
RRIRSRPPRLPRPRPRPNMQPRP | -0.0719
RRIRDRPPRLPRPRPRPKVSPRP | 0.036
RRIRNRPPRLPRPRPRPMPKPRP | -0.0238
RRIRNRPPRLPRPRPRPFEYPRP | -0.266
RRIRIRPPRLPRPRPRPSWLPRP | -0.373
RRIRERPPRLPRPRPRPCGRPRP | -0.0316
RRIRFRPPRLPRPRPRPLTVPRP | -0.73
RRIRLRPPRLPRPRPRPFILPRP | -0.978
RRIRERPPRLPRPRPRPMQCPRP | -0.211
RRIRTRPPRLPRPRPRPLRWPRP | 0.856
RRIRERPPRLPRPRPRPFGSPRP | 0.0942
RRIRKRPPRLPRPRPRPWRTPRP | 0.379
RRIRYRPPRLPRPRPRPDDAPRP | -0.199
RRIRKRPPRLPRPRPRPTQDPRP | 1.3
RRIRTRPPRLPRPRPRPPHTPRP | 0.0399
RRIRYRPPRLPRPRPRPIAMPRP | -0.322
RRIRFRPPRLPRPRPRPWFSPRP | -0.0536
RRIRYRPPRLPRPRPRPVLSPRP | -0.311
RRIRCRPPRLPRPRPRPIPAPRP | 0.0747
RRIRKRPPRLPRPRPRPEWGPRP | 0.755
RRIRKRPPRLPRPRPRPYDEPRP | -0.293
RRIRNRPPRLPRPRPRPCQPPRP | -0.0231

Sequence | shrunken log2 fold change
RRIRSRPPRLPRPRPRPKCQPRP | 0.607
RRIRSRPPRLPRPRPRPAWPPRP | 0.49
RRIRPRPPRLPRPRPRPEDGPRP | 0.0827
RRIRCRPPRLPRPRPRPNDGPRP | -0.00783
RRIRSRPPRLPRPRPRPVGEPRP | 0.332
RRIRDRPPRLPRPRPRPLDYPRP | -0.242
RRIRGRPPRLPRPRPRPGWEPRP | 0.506
RRIRVRPPRLPRPRPRPASFPRP | 0.115
RRIRHRPPRLPRPRPRPGQEPRP | -0.00664
RRIRLRPPRLPRPRPRPLWYPRP | -0.191
RRIRFRPPRLPRPRPRPIQEPRP | -0.541
RRIRMRPPRLPRPRPRPMIRPRP | 0.00211
RRIRIRPPRLPRPRPRPQRYPRP | 0.159
RRIRSRPPRLPRPRPRPCLYPRP | -0.198
RRIRTRPPRLPRPRPRPTFVPRP | -0.262
RRIRGRPPRLPRPRPRPCQHPRP | -0.153
RRIRNRPPRLPRPRPRPQIWPRP | 0.0573
RRIRFRPPRLPRPRPRPNGGPRP | 0.000932
RRIRYRPPRLPRPRPRPDIIPRP | -0.609
RRIRQRPPRLPRPRPRPRRSPRP | -0.0497
RRIRTRPPRLPRPRPRPFFPPRP | 0.191
RRIRPRPPRLPRPRPRPGEHPRP | -0.133
RRIRTRPPRLPRPRPRPYTTPRP | -0.718
RRIRWRPPRLPRPRPRPNQGPRP | 0.0374
RRIRCRPPRLPRPRPRPGLSPRP | -0.248

Sequence | shrunken log2 fold change
RRIRNRPPRLPRPRPRPADAPRP | 0.261
RRIRVRPPRLPRPRPRPYEMPRP | -0.311
RRIRDRPPRLPRPRPRPVLQPRP | 0.0891
RRIRRRPPRLPRPRPRPDWMPRP | 0.0919
RRIRWRPPRLPRPRPRPPQTPRP | 0.169
RRIRKRPPRLPRPRPRPPVDPRP | 0.0616
RRIRIRPPRLPRPRPRPPKSPRP | -0.0284
RRIRKRPPRLPRPRPRPYIAPRP | -0.293
RRIRERPPRLPRPRPRPRNSPRP | -0.639
RRIRARPPRLPRPRPRPPLSPRP | 0.549
RRIRPRPPRLPRPRPRPYCYPRP | -0.798
RRIRARPPRLPRPRPRPARKPRP | 0.898
RRIRSRPPRLPRPRPRPDQCPRP | -0.209
RRIRPRPPRLPRPRPRPNPQPRP | -0.0414
RRIRFRPPRLPRPRPRPVLEPRP | 0.00555
RRIRIRPPRLPRPRPRPVEGPRP | -0.308
RRIRFRPPRLPRPRPRPFKAPRP | -0.11
RRIRERPPRLPRPRPRPVMTPRP | -0.221
RRIRFRPPRLPRPRPRPWEWPRP | 0.0781
RRIRARPPRLPRPRPRPMPTPRP | 0.866
RRIRDRPPRLPRPRPRPRTGPRP | 0.0132
RRIRLRPPRLPRPRPRPEHWPRP | 0.4
RRIRWRPPRLPRPRPRPSTWPRP | -0.148
RRIRERPPRLPRPRPRPHVDPRP | -0.00242
RRIRPRPPRLPRPRPRPMEEPRP | -0.0433

Sequence | shrunken log2 fold change
RRIRERPPRLPRPRPRPGMVPRP | 0.217
RRIRSRPPRLPRPRPRPKGSPRP | 0.0118
RRIRFRPPRLPRPRPRPVFCPRP | -0.0281
RRIRLRPPRLPRPRPRPEWDPRP | 0.273
RRIRQRPPRLPRPRPRPAWDPRP | 1.54
RRIRCRPPRLPRPRPRPDGEPRP | 0.0622
RRIRERPPRLPRPRPRPIHPPRP | -0.239
RRIRIRPPRLPRPRPRPFADPRP | -0.26
RRIRERPPRLPRPRPRPTAPPRP | -0.043
RRIRVRPPRLPRPRPRPEDYPRP | 0.0316
RRIRRRPPRLPRPRPRPVPRPRP | 0.518
RRIRQRPPRLPRPRPRPIQWPRP | 0.34
RRIRQRPPRLPRPRPRPLATPRP | 0.0953
RRIRKRPPRLPRPRPRPPEAPRP | 0.948
RRIRARPPRLPRPRPRPYDPPRP | -0.406
RRIRERPPRLPRPRPRPLCFPRP | -0.313
RRIRRRPPRLPRPRPRPARWPRP | 1.13
RRIRTRPPRLPRPRPRPDAFPRP | -0.014
RRIRIRPPRLPRPRPRPCMYPRP | -0.573
RRIRERPPRLPRPRPRPFYRPRP | -0.111
RRIRNRPPRLPRPRPRPGLDPRP | 0.00266
RRIRPRPPRLPRPRPRPWPCPRP | 0.0872
RRIRTRPPRLPRPRPRPEFGPRP | 0.0617
RRIRCRPPRLPRPRPRPESMPRP | 0.114
RRIRNRPPRLPRPRPRPQMNPRP | -0.614

Sequence | shrunken log2 fold change
RRIRRRPPRLPRPRPRPNRHPRP | -0.00811
RRIRTRPPRLPRPRPRPATPPRP | 0.499
RRIRSRPPRLPRPRPRPQCAPRP | 0.233
RRIRKRPPRLPRPRPRPVLKPRP | 0.185
RRIRPRPPRLPRPRPRPWAPPRP | 0.153
RRIRTRPPRLPRPRPRPHQEPRP | -0.163
RRIRKRPPRLPRPRPRPHKHPRP | -0.119
RRIRYRPPRLPRPRPRPRVIPRP | -0.0396
RRIRWRPPRLPRPRPRPANCPRP | 0.0179
RRIRTRPPRLPRPRPRPFCMPRP | -0.24
RRIRCRPPRLPRPRPRPDAEPRP | 1.03
RRIRCRPPRLPRPRPRPVHYPRP | -0.0961
RRIRGRPPRLPRPRPRPRIQPRP | 0.337
RRIRLRPPRLPRPRPRPNVVPRP | -0.19
RRIRGRPPRLPRPRPRPTQTPRP | 0.775
RRIRNRPPRLPRPRPRPNKKPRP | -0.198
RRIRERPPRLPRPRPRPVIYPRP | -0.248
RRIRHRPPRLPRPRPRPACDPRP | 0.285
RRIRDRPPRLPRPRPRPSWNPRP | -0.365
RRIRLRPPRLPRPRPRPTQEPRP | 0.0081
RRIRVRPPRLPRPRPRPSNGPRP | -0.219
RRIRTRPPRLPRPRPRPLDGPRP | 0.0872
RRIRTRPPRLPRPRPRPAKVPRP | -0.29
RRIRVRPPRLPRPRPRPPFDPRP | 0.199
RRIRIRPPRLPRPRPRPKGAPRP | 0.36
